Assay results published in PMC10868440, “Structural characterization of the Sel1‐like repeat protein LceB from Legionella pneumophila” (Protein Science : A Publication of the Protein Society, 2024).
Values joined by “and” are separate entries in the source; they are usually repeats but may differ in a detail not shown here. Identical values can stand only once.

Tests used:
[1] = target: full-length 6His-LceB (Legionella pneumophila Philadelphia-1) (UniProt Q5ZVT4); test: mass photometry
[2] = target: the molecule itself; test: mass photometry

| Molecule | stoichiometry N [1] | stoichiometry N [2] |
| --- | --- | --- |
| full-length 6His-LceB (from UniProt Q5ZVT4 1-376) (natural protein) | 3 and 5 |  |
| 6His-LceB (22-366) (domain or fragment, also called Lpg1356; truncated LceB crystallization construct; not shown: His6, N-terminal, kept) VGFAAFENGDYTTAYPHLMQAAKEGNEEAMYLLGRMYQYGYGVTTNYEEARNWYQKAADKNNALAQLSLGFMYDTGKGVSQDFTEAFKWYMKAAEQGNPIAQRNIGLMYATGDGVAASDDKAFNWFKKAAEQGYSKAQVNLGYQYMMGKGTPKDVKKAFEWYQKAAEQGDEKGEYSLGLLYTGQEGGIGADDKAAFYWFSQAANHGHVNAQTYLAYYYLKGYGVDADPVKAAYWYQSAAEKGQPEAQAQLGQLLLTGTGVDKDYQQAAYWFGKSAHQGNPIGQAKLGYMYLAGLGVNKSLVKAYAWLKIAAENKNEEAAKQLKSLEAKLTEPEKLEAEKMIKDLG |  | 2 |
| LceB no HT (22-366) (domain or fragment, also called LceB no His-tag; digested LceB) VGFAAFENGDYTTAYPHLMQAAKEGNEEAMYLLGRMYQYGYGVTTNYEEARNWYQKAADKNNALAQLSLGFMYDTGKGVSQDFTEAFKWYMKAAEQGNPIAQRNIGLMYATGDGVAASDDKAFNWFKKAAEQGYSKAQVNLGYQYMMGKGTPKDVKKAFEWYQKAAEQGDEKGEYSLGLLYTGQEGGIGADDKAAFYWFSQAANHGHVNAQTYLAYYYLKGYGVDADPVKAAYWYQSAAEKGQPEAQAQLGQLLLTGTGVDKDYQQAAYWFGKSAHQGNPIGQAKLGYMYLAGLGVNKSLVKAYAWLKIAAENKNEEAAKQLKSLEAKLTEPEKLEAEKMIKDLG |  | 2 |
